Several values for one entry are separate records, joined by “and”; a condition that tells them apart may be missing. Equal values may be shown once.
T1: rhesus CD11a (rhesus, UniProt H9Z8N3 26-1169)
T1 construct: whole, on cells; On rhesus peripheral blood lymphocytes or leukocytes; also called rhCD11a
T1 sequence: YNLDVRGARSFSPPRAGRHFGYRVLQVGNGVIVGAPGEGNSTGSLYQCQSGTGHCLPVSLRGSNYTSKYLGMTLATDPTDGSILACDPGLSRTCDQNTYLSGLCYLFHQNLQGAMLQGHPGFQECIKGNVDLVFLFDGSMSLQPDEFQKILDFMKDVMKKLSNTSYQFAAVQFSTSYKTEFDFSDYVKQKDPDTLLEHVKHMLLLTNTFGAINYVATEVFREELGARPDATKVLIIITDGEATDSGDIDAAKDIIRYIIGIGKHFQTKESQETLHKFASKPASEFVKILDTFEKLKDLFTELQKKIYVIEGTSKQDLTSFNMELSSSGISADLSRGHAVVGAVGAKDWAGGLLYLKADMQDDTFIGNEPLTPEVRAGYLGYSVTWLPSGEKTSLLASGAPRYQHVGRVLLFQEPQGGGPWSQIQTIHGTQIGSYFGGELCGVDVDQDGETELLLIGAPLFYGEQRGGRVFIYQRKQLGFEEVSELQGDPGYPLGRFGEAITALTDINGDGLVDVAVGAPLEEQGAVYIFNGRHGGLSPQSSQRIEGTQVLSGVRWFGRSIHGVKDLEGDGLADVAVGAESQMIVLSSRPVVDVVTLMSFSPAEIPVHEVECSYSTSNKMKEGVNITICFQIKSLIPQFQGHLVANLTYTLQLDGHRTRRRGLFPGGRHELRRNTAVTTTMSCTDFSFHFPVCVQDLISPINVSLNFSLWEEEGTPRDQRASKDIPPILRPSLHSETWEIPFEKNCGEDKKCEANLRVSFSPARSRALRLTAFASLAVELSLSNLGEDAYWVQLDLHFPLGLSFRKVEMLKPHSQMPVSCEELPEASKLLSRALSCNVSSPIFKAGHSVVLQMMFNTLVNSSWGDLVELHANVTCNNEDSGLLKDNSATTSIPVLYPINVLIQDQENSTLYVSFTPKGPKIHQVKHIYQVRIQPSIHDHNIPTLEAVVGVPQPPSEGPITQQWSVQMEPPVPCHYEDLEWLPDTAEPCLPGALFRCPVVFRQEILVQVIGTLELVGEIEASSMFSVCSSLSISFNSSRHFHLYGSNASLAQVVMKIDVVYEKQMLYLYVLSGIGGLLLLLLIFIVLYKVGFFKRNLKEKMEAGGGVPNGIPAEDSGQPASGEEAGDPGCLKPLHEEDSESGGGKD

T2: rhesus-human chimeric CD11a (human (I-domain mutated to rhesus), UniProt P20701 26-1170)
T2 sequence (looked up): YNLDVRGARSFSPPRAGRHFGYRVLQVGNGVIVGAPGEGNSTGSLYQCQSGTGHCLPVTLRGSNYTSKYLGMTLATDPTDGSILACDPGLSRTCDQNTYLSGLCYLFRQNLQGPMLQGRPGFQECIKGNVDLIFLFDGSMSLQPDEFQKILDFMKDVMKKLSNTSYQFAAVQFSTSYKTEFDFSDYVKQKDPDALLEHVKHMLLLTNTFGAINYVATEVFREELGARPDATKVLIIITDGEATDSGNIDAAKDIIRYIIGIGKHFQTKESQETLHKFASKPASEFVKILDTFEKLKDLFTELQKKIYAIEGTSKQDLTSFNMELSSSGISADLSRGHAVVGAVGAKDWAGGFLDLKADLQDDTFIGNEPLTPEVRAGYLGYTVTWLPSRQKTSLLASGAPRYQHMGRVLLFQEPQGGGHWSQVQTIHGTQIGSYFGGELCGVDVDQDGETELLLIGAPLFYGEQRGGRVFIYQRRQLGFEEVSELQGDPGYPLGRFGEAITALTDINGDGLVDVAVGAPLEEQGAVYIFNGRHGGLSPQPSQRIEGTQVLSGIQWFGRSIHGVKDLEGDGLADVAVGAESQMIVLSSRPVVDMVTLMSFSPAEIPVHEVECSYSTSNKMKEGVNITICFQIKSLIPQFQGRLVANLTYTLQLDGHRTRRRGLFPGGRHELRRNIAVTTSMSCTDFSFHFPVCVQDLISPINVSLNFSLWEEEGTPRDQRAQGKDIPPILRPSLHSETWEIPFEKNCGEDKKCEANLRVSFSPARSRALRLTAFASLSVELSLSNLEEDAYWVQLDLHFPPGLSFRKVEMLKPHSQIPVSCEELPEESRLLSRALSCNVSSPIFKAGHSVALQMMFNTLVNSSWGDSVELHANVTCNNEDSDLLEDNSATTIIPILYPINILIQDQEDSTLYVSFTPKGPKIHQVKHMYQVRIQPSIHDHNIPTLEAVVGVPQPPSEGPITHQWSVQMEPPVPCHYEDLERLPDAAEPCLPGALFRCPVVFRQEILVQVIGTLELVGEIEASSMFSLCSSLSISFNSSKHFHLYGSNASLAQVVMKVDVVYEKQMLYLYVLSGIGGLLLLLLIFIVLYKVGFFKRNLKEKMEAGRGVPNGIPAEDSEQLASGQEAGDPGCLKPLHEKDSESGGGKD


Legend:
rhesus CD11a [1] = target: T1, rhesus CD11a; assay: rhesus PBL binding
rhesus CD11a [2] = target: T1, rhesus CD11a; assay: saturation binding
Procedure: (§1) Antibody affinities were determined by saturation binding using either peripheral blood mononuclear cells (murine MHM24 and HuIgG1) or rhesus leukocytes (MHM23, RhIgG1). In each assay, a radiolabeled antibody was serially diluted in HBSS-0.2% gelatin in quadruplicate. Nonspecific binding was determined by the addition of 500 nM final concentration of homologous unlabeled antibody in duplicate through the serial dilution. Human lymphocytes or rhesus leukocytes were added to the plates in a volume of 170 μl per well. Plates were incubated for 2 hr at room temperature on an orbital plate shaker. After incubation, cells were harvested using a SKATRON™ cell harvester (Lier, Norway) and washed 10 times with PBS containing 0.25% gelatin and 0.1% sodium azide. Samples were then counted for 1 min in an LBK Wallac GammaMaster gamma counter (Gaithersburg, Md.). Data was transformed from counts per minute to nanomolarity and four-parameter curve-fitting of saturation plots (bound versus total) was then performed to determine Kd (app) values.

rhesus CD11a [3] = target: T1, rhesus CD11a; assay: cell-based or functional assay
[4] = target: T2, rhesus-human chimeric CD11a; assay: cell-based or functional assay
rhesus CD11a [5] = target: T1, rhesus CD11a; assay: rhesus PBL binding; remark: listed apart in the source
rhesus CD11a [6] = target: T1, rhesus CD11a; assay: cell-based or functional assay; remark: listed apart in the source
[7] = target: T2, rhesus-human chimeric CD11a; assay: cell-based or functional assay; remark: listed apart in the source
rhesus CD11a [8] = target: T1, rhesus CD11a; assay: cell-based or functional assay; remark: listed apart in the source
rhesus CD11a [9] = target: T1, rhesus CD11a; assay: saturation binding, rhesus leukocytes, donor 1; Kd(app)
Procedure: (§2) Radiolabeled antibodies were prepared using Iodo-Gen (Pierce, Rockford, Ill.) according to the manufacturer's instructions. 50 μg of antibody and 1 mCi¹²⁵I (DuPont, Wilmington, Del.) were added to each tube and incubated for 15 min at 25° C. Radiolabeled proteins were purified from the remaining free ¹²⁵I using PD-10 columns (Pharmacia, Uppsala, Sweden) equilibrated in Hank's Balanced Salt Solution (HBSS, Life Technologies, Grand Island, N.Y.) containing 0.2% gelatin.
Leukocytes were purified from heparinized rhesus monkey peripheral blood collected from two individuals by Dextran sedimentation. Blood was diluted with an equal volume of 3% Dextran T500 (Pharmacia) in PBS and was allowed to sediment undisturbed at 25° C. for 30 min. After sedimentation, cells remaining in suspension were harvested and pelleted by centrifugation at 400×g for 5 min. Residual erythrocytes were removed by two cycles of hypotonic lysis using distilled water and 2×HBSS. […]
Antibody affinities were determined by saturation binding using either peripheral blood mononuclear cells (murine MHM24 and HuIgG1) or rhesus leukocytes (MHM23, RhIgG1). […] Nonspecific binding was determined by the addition of 500 nM final concentration of homologous unlabeled antibody in duplicate through the serial dilution. […] Samples were then counted for 1 min in an LBK Wallac GammaMaster gamma counter (Gaithersburg, Md.). […]

rhesus CD11a [10] = target: T1, rhesus CD11a; assay: rhesus PBL binding; end of range assigned by the printed EC50s
rhesus CD11a [11] = target: T1, rhesus CD11a; assay: saturation binding, rhesus leukocytes, donor 3, with 1 mg/ml human IgG1; Kd(app)
Procedure: Leukocytes were purified from heparinized rhesus monkey peripheral blood collected from two individuals by Dextran sedimentation. Blood was diluted with an equal volume of 3% Dextran T500 (Pharmacia) in PBS and was allowed to sediment undisturbed at 25° C. for 30 min. After sedimentation, cells remaining in suspension were harvested and pelleted by centrifugation at 400×g for 5 min. Residual erythrocytes were removed by two cycles of hypotonic lysis using distilled water and 2×HBSS. After erythrocyte lysis, cells were washed in PBS and then resuspended in HBSS-0.2% gelatin.
as §1, with “After incubation, cells were harvested using a SKATRON™ cell harvester (Lier, Norway) and washed 10 times with PBS containing 0.25% gelatin and 0.1% sodium azide.” left out, “Data was transformed from counts per minute to nanomolarity and four-parameter curve-fitting of saturation plots (bound versus total) was then performed to determine Kd (app) values.” left out

human CD11a [12] = target: T3, human CD11a (human, UniProt P20701 26-1170); assay: cell-based or functional assay
rhesus CD11a [13] = target: T1, rhesus CD11a; assay: binding to rhesus CD11a compared with human CD11a
human CD11a [14] = target: T3, human CD11a; assay: saturation binding, human lymphocytes, donor 1; Kd(app)
Procedure: as §2
as §1, with “Data was transformed from counts per minute to nanomolarity and four-parameter curve-fitting of saturation plots (bound versus total) was then performed to determine Kd (app) values.” left out

human CD11a [15] = target: T3, human CD11a; assay: saturation binding, human lymphocytes, donor 2; Kd(app)
Procedure: as §2
as §1, with “Data was transformed from counts per minute to nanomolarity and four-parameter curve-fitting of saturation plots (bound versus total) was then performed to determine Kd (app) values.” left out

human CD11a [16] = target: T3, human CD11a; assay: saturation binding, 125I-antibody, human lymphocytes; Kd(app)
Procedure: as §2
as §1, with “Data was transformed from counts per minute to nanomolarity and four-parameter curve-fitting of saturation plots (bound versus total) was then performed to determine Kd (app) values.” left out

EC50 (rhesus CD11a [1]) [nM] | fold Kd against Kd of HuIgG1 for human CD11a (rhesus CD11a [2]) [fold] | fold less efficacious than MHM23, RhLy: HuICAM adhesion (rhesus CD11a [3]) [fold] | fold less efficacious than MHM23, RhLy: HuK adhesion (rhesus CD11a [3]) [fold] | fold down from MHM23, Rh/HuCD11a-293: HuK adhesion [4] [fold] | Var.EC50/HuIgG1 EC50 (rhesus CD11a [5]) [ratio] | IC50, blocking of cell adhesion, RhLy: HuICAM (rhesus CD11a [6]) [nM] | IC50, blocking of cell adhesion, RhLy: HuK (rhesus CD11a [6]) [nM] | IC50, blocking of cell adhesion, Rh/HuCD11a: HuK [7] [nM] | IC50, rhesus mixed lymphocyte response (rhesus CD11a [8]) [nM] | Kd (rhesus CD11a [9]) [nM] | fold improvement over EC50 of HuIgG1 for rhesus CD11a (rhesus CD11a [10]) [fold] | fold weaker than EC50 of HuIgG1 for human CD11a (rhesus CD11a [10]) [fold] | Kd (rhesus CD11a [11]) | IC50, blocking of cell adhesion, Jurkat: HuK (human CD11a [12]) [nM] | fold reduction in binding against human CD11a (rhesus CD11a [13]) [fold] | Kd (human CD11a [14]) [nM] | Kd (human CD11a [15]) [nM] | Kd (human CD11a [16]) [nM] | Binder
0.19 | ~26 | 4 | 74 | 4 | 0.004 | 5.3 | 119 | 4.9 | 23.4 | 3.9 | 240 to 415 | 3 to 5 | 2.8 nM and 2.7 nM |  |  |  |  |  | rhesus-binding MHM24 IgG1 (antibody, V domains shown, HuIgG1 mutant (H52 Ala, H53 Ala, H54 Ser, H56 Ser); human IgG1; also called RhIgG1; H2C12) VH: EVQLVESGGGLVQPGGSLRLSCAASGYSFTGHWMNWVRQAPGKGLEWVGMIAPASSSTRYNQKFKDRFTISVDKSKNTLYLQMNSLRAEDTAVYYCARGIYFYGTTYFDYWGQGTLVTVSS VL: DIQMTQSPSSLSASVGDRVTITCRASKTISKYLAWYQQKPGKAPKLLIYSGSTLQSGVPSRFSGSGSGTDFTLTISSLQPEDFATYYCQQHNEYPLTFGQGTKVEIKR
 |  |  |  |  |  |  |  |  |  |  |  |  |  | 0.09 | ~1000 | 0.16 | 0.13 | 0.15 | murine MHM24 (antibody, V domains shown, Murine anti-human CD11a monoclonal antibody; also called muMHM24; murMHM24) VH: EVQLQQPGAELMRPGASVKLSCKASGYSFTGHWMNWVRQRPGQGLEWIGMIHPSDSETRLNQKFKDKATLTVDKSSSSAYMQLSSPTSEDSAVYYCARGIYFYGTTYFDYWGQGTTLTVSS VL: DVQITQSPSYLAASPGETISINCRASKTISKYLAWYQEKPGKTNKLLIYSGSTLQSGIPSRFSGSGSGTDFTLTISSLEPEDFAMYYCQQHNEYPLTFGTGTKLELKR

Reference: patent publication US20040146507A1 (Genentech, published 2004)
